{"source": "patent US20140030725", "proteins": {"B1": {"name": "Activated MMP-2 (Anaspec) (protein)", "chain": "YNFFPRKPKWDKNQITYRIIGYTPDLDPETVDDAFARAFQVWSDVTPLRFSRIHDGEADIMINFGRWEHGDGYPFDGKDGLLAHAFAPGTGVGGDSHFDDDELWTLGEGQVVRVKYGNADGEYCKFPFLFNGKEYNSCTDTGRSDGFLWCSTTYNFEKDGKYGFCPHEALFTMGGNAEGQPCKFPFRFQGTSYDSCTTEGRTDGYRWCGTTEDYDRDKKYGFCPETAMSTVGGNSEGAPCVFPFTFLGNKYESCTSAGRSDGKMWCATTANYDDDRKWGFCPDQGYSLFLVAAHEFGHAMGLEHSQDPGALMAPIYTYTKNFRLSQDDIKGIQELYGASPDIDLGTGPTPTLGPVTPEICKQDIVFDGIAQIRGEIFFFKDRFIWRTVTPRDKPMGPLLVATFWPELPEKIDAVYEAPQEEKAVFFAGNEYWIYSASTLERGYPKPLTSLGLPPDVQRVDAAFNWSKNKKTYIFAGDKFWRYNEVKKKMDPGFPKLIADAWNAIPDNLDAVVDLQGGGHSYFFKGAYYLKLENQSLKSVKFGSIKSDWLGC"}}, "molecular_target": "MMP-2 sensor (1A5 variant backbone with the human MMP-2 recognition site PLGMWSR, N-terminal GST tag with TEV site, C-terminal 5xHQ tag)"}
{"protein": "B1", "values": [{"measurement": "luminescence, fold increase over control (background from MMP-2 sensor); least amount of MMP-2 detected", "value": "can be used to detect as little as 0.75 ng protein"}]}
